Laboratory results taken from patent US20090304687A1, “METHODS OF USING CD40 BINDING AGENTS” (Seattle Genetics , Inc., priority 2005, published 2009).
“Also recorded” adds a separate entry of the source.

Tests used:
[1] = target: CD40 and CD40L (Homo sapiens, UniProt P25942); details: literature; cited from earlier work
[2] = U.S. Pat. No. 6,838,261; cited from earlier work
[3] = system: human peripheral B cells; details: Paulie et al., 1989; cited from earlier work
[4] = target: CD40 (Homo sapiens, UniProt P25942); experiment: Binding of variant antibodies to CD40 immobilized on microassay plates; set-up: Binding Data 1 / Binding Data 2 / Binding Data 3: unit not given here
Sequence of CD40 (P25942 21-277): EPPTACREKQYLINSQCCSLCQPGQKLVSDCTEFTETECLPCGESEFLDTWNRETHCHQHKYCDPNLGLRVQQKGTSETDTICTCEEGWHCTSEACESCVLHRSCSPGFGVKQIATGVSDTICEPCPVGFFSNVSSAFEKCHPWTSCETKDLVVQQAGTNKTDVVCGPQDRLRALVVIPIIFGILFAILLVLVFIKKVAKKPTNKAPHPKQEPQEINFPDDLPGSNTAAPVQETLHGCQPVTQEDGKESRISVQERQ
Method: Antibodies constructed using these variant light and heavy chain variable domains were analyzed for binding activity. Each antibody was diluted to equivalent concentrations, and then serially diluted. The diluted antibodies were assayed for binding to CD40 immobilized on microassay plates. Affinity binding data for the variant antibodies are shown below in Table 3.

[5] = system: Ramos tumor cells; experiment: SCID mouse lymphoma xenograft model, intravenous Ramos cells, survival; assay type: in vivo; details: 4 mg/kg/dose i.p. two times per week, five doses, 10 mice/group
Method: The efficacy of the humanized CD40 antibody on survival of tumor-bearing mice was assayed in a SCID mouse lymphoma xenograft model. SCID mice (10/group) were inoculated intravenously with one million Ramos tumor cells three days prior to antibody treatment. Mice were treated with murine or humanized CD40 antibody, or an Ig control, administered intraperitoneally two times per week (4 mg/kg/dose) for a total of five doses. The mouse cages were examined daily for mortality.

[6] = system: Ramos tumor cells; experiment: SCID mouse lymphoma xenograft model, subcutaneous Ramos tumor growth; assay type: in vivo, SCID mice; details: 4 mg/kg/dose i.p. 3 times per week, start 13 days after implant, 14-day study period
Method: The anti-tumor activity of the humanized CD40 antibody was assayed in a SCID mouse lymphoma xenograft model. Five million Ramos tumor cells were injected subcutaneously into SCID mice (10/group) thirteen days prior to starting drug treatment. Murine CD40 antibody or the humanized S2C6 was given intra-peritoneally 3 times per week (4 mg/kg/dose) with 8 or 5 doses administered. Mice were examined for tumor growth, and tumor volume was measured weekly during the 14-day study period. The results in FIG. 4 show a nearly 9-fold increase in the growth of tumors in control mice, whereas over the same time period, tumor growth in mice treated with either murine CD40 antibody or humanized S2C6 was negligible.

[7] = Pharmacokinetics of SGN-40 in patients with multiple myeloma; assay type: in vivo, human; details: for AUC0-50: Days 0 to 50, 1 compartment model fit; for T ½: after the last infusion, 1 compartment model fit; for Day 36 Cmin: trough 7 days after last dose; for Day 29 Cmax: serum, after last dose, mean ± SD
Method: The humanized CD40 antibody, SGN-40, was administered twice during the first week and once a week […] for the next 4 weeks to patients with multiple myeloma. […] The peak serum concentration (Cmax) of SGN-40 observed following the last dose on Day 29 and the subsequent trough levels 7 days later on Day 36 are shown for each cohort in Table 6. […] (n/a means not applicable.) […] Data are presented as the mean±standard deviation (N>3) with the exception of Cohort I Day 36 Cmin (N=2), and Cohort II, T1/2 and AUC0-50 (N-1). The patients maintained a plasma SGN-40 concentration of at least about 10 micrograms/ml.

[8] = system: Ramos cells; experiment: In vitro signaling in Ramos cells, western blot; assay type: cell-based; details: 2% serum, antibody cross-linked with anti-human IgG, 15 min
Method: Humanized anti-CD40 antibody (Hu sgn-0; also referred to as SGN-40) binding to CD40^+ NHL cells activates signaling through the ERK1/2 MAP Kinase, p38 MAP Kinase, and NFkB pathways. Ramos cells (cultured in 2% serum) were stimulated with the humanized CD40 antibody cross-linked (XL) with anti-human IgG for 15 min. Activation of signaling was detected by western blot analysis with antibodies recognizing phosphorylation of ERK1/2 (Thr202/Tyr204), p38 (ThrlSO/Tyr182), and AKT (Ser473). NFkB activation was detected by measuring the degradation of IkB-a protein.

[9] = target: CD40 immobilized on microassay plates (UniProt P25942 21-193, limits assumed); experiment: serially diluted antibody on CD40 immobilized on microassay plates
Sequence of CD40 immobilized on microassay plates (P25942 21-193 limits assumed): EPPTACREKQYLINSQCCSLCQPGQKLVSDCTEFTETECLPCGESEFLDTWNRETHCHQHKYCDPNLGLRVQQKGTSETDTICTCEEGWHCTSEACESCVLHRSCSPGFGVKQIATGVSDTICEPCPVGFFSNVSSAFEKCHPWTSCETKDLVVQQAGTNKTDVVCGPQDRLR
Method: Antibodies constructed using these variant light and heavy chain variable domains were analyzed for binding activity. Each antibody was diluted to equivalent concentrations, and then serially diluted. The diluted antibodies were assayed for binding to CD40 immobilized on microassay plates.

[10] = system: IM-9 cells; experiment: IM-9 disseminated xenograft model, survival; assay type: in vivo, SCID mice; details: data not shown
Method: Briefly IM-9 cells (1×10^6 per mouse) were introduced intravenously into SCID mice in a disseminated xenograft model. Animals were treated 3 days post tumor cell injection with either SGN-40(4.0 mg/kg, q2d x9, ip) or prednisone (0.15 mg/kg, qld x5, po) alone, or in combination. Survival data was plotted using a Kaplan-Meier curve (data not shown).

[11] = system: Ramos cells; experiment: Bid upregulation and PARP/caspase-3 cleavage in Ramos cells, western blot; assay type: cell-based
Method: In a further study, Ramos cells (2% FBS) were treated with cross-linked humanized CD40 antibody or control hIgG over a 72 hr time course ([…]). Normalized protein extracts were analyzed by western blotting analysis for the pro-apoptotic Bcl-2 family member Bid. […] Referring to FIG. 3B, degradation of the caspase-3/7 substrate poly(ADP-ribose) polymerase (cleaved-PARP) was monitored over time by western blotting with an antibody recognizing PARP cleaved at Asp214. Consistent with the apoptosis-inducing activity of the humanized CD40 antibody, cleavage of caspase-3 and its downstream substrate poly (ADP-ribose) polymerase was detected in NHL cell lines. Antibody-mediated signaling was qualitatively similar to that mediated by trimeric recombinant humanized CD40 ligand (rhCD40L) (data not shown). However, the overall magnitude of signaling was lower with the humanized CD40 antibody compared to rhCD40L, consistent with the partial agonistic properties of SGN-40.

[12] = Phase I escalated dosing study in multiple myeloma patients, adverse events; assay type: in vivo, human
Method: An open-label, multi-dose, single arm, Phase I protocol initiated at five clinical sites. Initially, enrolled patients, diagnosed with multiple myeloma, received weekly intravenous infusions of a humanized CD40 antibody (hu sgn-0) with a cohort-specific dose level of 0.5, 1, 2 and 4 mg/kg/wk. […] Cohort specific doses of 3, 4, 6 and 8 mg/kg/week were used. The patient eligibility criteria included: patients must have failed at least two prior systemic therapies; at least four weeks since chemotherapy; patients who experience a minimal response (MR) or greater are eligible for a second cycle of therapy.
Patients were monitored for adverse events. […] The drug-loading period reduced the first-dose cytokine release syndrome.

[13] = system: Ramos cells; experiment: In vitro drug combinations with SGN-40, 3H-thymidine proliferation, Combination Index; assay type: cell-based
Method: Cells were treated for 72 hours, then labeled with ^3H-thymidine for 4 hours to measure proliferation rates. Dose response curves of drugs alone and in combination with the humanized CD40 antibody were reduced in Excel, and Combination Indices (CI) determined using the Calcusyn analysis package (Biosoft). […] CI values equal to 1.0 indicate an additive integration. For these studies, n=3 unless otherwise indicated.

Sequence of CD40 and CD40L (P25942 21-277): as the sequence (P25942 21-277) above

B1: SGN-14: parent murine monoclonal CD40 antibody (donor), heavy SEQ ID NO: 1, light SEQ ID NO: 12; ATCC PTA-110 (antibody, V domains shown)
VH: EVQLQQSGPDLVKPGASVKISCKASGYSFTGYYIHWVKQSHGKSLEWIGRVIPNNGGTSYNQKFKGKAILTVDKSSSTAYMELRSLTSEDSAVYYCAREGIYWWGHGTTLTVS
VL: DVVVTQTPLSLPVSLGAQASISCRSSQSLVHSNGNTFLHWYLQKPGQSPKLLIYTVSNRFSGVPDRFSGSGSGTDFTLKISRVEAEDLGVYFCSQTTHVPWTFGGGTKLEIQR
modifications: MusMusculus
effect on the interaction between CD40 and CD40L [1]: can increase the interaction between CD40 and CD40L
anti-neoplastic activity in vivo [2]: anti-neoplastic activity in vivo
activity on human peripheral B cells (primary B cell proliferation) [3]: stimulate primary B cell proliferation in a dose dependent manner
Binding Data 3 ([4]; affinity binding data, serially diluted antibody on immobilized CD40): 1.16
binding activity compared with the parent murine antibody ([4]; in words): approaching that of the parent murine antibody; also recorded: more closely approaching that of the parent murine antibody
mice alive 90 days after tumor implant [5]: eight of the ten
tumor growth [6]: negligible

B2: hu sgn-0 (antibody, V domains shown)
VH: EVQLVESGGGLVQPGGSLRLSCAASGYSFTGYYIHWVRQAPGKGLEWVARVIPNNGGTSYNQKFKGRFTISRDNSKNTLYLQMNSLRAEDTAVYYCAREGIYWWGQGTLVTVS
VL: DIQMTQSPSSLSASVGDRVTITCRSSQSLVHSNGNTFLHWYQQKPGKAPKLLIYTVSNRFSGVPSRFSGSGSGTDFTLTISSLQPEDFATYYCSQTTHVPWTFGQGTKVEIKR
notes: also called SGN-40; Template
AUC0-50 ([7]; Cohort I (1,1,2,3,3,3)): 653.93 ± 154.65 µg·days/mL
T ½ ([7]; Cohort I (1,1,2,3,3,3)): 64.1 ± 25.9 h
Day 36 Cmin ([7]; Cohort I (1,1,2,3,3,3), N=2): 9.94 µg/mL
Day 29 Cmax ([7]; Cohort I (Day 1/4/8/15/22/29: 1,1,2,3,3,3)): 45.40 ± 14.31 µg/mL
AUC0-50 ([7]; Cohort II (1,1,2,4,4,4)): 2086.02 µg·days/mL
T ½ ([7]; Cohort II (1,1,2,4,4,4)): 111 h
Day 36 Cmin ([7]; Cohort II (1,1,2,4,4,4)): 69.93 ± 14.08 µg/mL
Day 29 Cmax ([7]; Cohort II (Day 1/4/8/15/22/29: 1,1,2,4,4,4)): 143.00 ± 27.78 µg/mL
AUC0-50 ([7]; Cohort III (1,1,2,4,6,6)): 1988.88 ± 439.74 µg·days/mL
T ½ ([7]; Cohort III (1,1,2,4,6,6)): 92.4 ± 32.9 h
Day 36 Cmin ([7]; Cohort III (1,1,2,4,6,6)): 41.57 ± 19.22 µg/mL
Day 29 Cmax ([7]; Cohort III (Day 1/4/8/15/22/29: 1,1,2,4,6,6)): 149.25 ± 29.34 µg/mL
AUC0-50 ([7]; Cohort IV (1,1,2,4,6,8)): 3441.73 ± 1382.79 µg·days/mL
T ½ ([7]; Cohort IV (1,1,2,4,6,8)): 129 ± 44.2 h
Day 36 Cmin ([7]; Cohort IV (1,1,2,4,6,8)): 112.84 ± 50.40 µg/mL
Day 29 Cmax ([7]; Cohort IV (Day 1/4/8/15/22/29: 1,1,2,4,6,8)): 244.25 ± 96.00 µg/mL
plasma SGN-40 concentration maintained ([7]; multiple myeloma patients): at least 10 micrograms/ml
AKT signaling [8]: modestly elevated
Binding Data 1 [9]: 75.3
Binding Data 2 [9]: 75.3
survival ([10]; SGN-40 4.0 mg/kg q2d x9 ip, 3 days post tumor cell injection): similarly effective in promoting survival
efficacy with or without prednisone ([10]; prednisone 0.15 mg/kg qld x5 po): essentially the same in the presence or absence of prednisone
cleavage of caspase-3 and poly (ADP-ribose) polymerase ([11]; NHL cell lines, western blot): detected
Bid protein ([11]; Ramos cells 2% FBS, cross-linked antibody, 72 hr time course, 1.0 mg/ml mAb): upregulated Bid
overall magnitude of signaling compared to rhCD40L ([11]; data not shown): lower
mice alive 90 days after tumor implant [5]: all ten
symptoms of first dose-associated cytokine release after amended protocol (intra-patient dose escalation) ([12]; drug-loading period, Table 5 schema): markedly reduced
antitumor activity ([12]; low doses tested thus far, multiple myeloma patients): preliminary evidence for antitumor activity
TNF-alpha levels in the plasma ([12]; multiple myeloma patients): elevated following the first infusion only
cytokine release ([12]; multiple myeloma patients): appeared to trigger cytokine release
adverse event with the first dose ([12]; weekly i.v. infusion, 4 mg/kg level, multiple myeloma patients): Grade 3 cytokine release syndrome
effect on activity of chemotherapeutic agents [13]: enhances the activity of several chemotherapeutic agents
tumor growth [6]: negligible
